From patent US20050277175

Molecular target: bovine aggrecan (UniProt P13608)
Sequence (P13608 20-2364): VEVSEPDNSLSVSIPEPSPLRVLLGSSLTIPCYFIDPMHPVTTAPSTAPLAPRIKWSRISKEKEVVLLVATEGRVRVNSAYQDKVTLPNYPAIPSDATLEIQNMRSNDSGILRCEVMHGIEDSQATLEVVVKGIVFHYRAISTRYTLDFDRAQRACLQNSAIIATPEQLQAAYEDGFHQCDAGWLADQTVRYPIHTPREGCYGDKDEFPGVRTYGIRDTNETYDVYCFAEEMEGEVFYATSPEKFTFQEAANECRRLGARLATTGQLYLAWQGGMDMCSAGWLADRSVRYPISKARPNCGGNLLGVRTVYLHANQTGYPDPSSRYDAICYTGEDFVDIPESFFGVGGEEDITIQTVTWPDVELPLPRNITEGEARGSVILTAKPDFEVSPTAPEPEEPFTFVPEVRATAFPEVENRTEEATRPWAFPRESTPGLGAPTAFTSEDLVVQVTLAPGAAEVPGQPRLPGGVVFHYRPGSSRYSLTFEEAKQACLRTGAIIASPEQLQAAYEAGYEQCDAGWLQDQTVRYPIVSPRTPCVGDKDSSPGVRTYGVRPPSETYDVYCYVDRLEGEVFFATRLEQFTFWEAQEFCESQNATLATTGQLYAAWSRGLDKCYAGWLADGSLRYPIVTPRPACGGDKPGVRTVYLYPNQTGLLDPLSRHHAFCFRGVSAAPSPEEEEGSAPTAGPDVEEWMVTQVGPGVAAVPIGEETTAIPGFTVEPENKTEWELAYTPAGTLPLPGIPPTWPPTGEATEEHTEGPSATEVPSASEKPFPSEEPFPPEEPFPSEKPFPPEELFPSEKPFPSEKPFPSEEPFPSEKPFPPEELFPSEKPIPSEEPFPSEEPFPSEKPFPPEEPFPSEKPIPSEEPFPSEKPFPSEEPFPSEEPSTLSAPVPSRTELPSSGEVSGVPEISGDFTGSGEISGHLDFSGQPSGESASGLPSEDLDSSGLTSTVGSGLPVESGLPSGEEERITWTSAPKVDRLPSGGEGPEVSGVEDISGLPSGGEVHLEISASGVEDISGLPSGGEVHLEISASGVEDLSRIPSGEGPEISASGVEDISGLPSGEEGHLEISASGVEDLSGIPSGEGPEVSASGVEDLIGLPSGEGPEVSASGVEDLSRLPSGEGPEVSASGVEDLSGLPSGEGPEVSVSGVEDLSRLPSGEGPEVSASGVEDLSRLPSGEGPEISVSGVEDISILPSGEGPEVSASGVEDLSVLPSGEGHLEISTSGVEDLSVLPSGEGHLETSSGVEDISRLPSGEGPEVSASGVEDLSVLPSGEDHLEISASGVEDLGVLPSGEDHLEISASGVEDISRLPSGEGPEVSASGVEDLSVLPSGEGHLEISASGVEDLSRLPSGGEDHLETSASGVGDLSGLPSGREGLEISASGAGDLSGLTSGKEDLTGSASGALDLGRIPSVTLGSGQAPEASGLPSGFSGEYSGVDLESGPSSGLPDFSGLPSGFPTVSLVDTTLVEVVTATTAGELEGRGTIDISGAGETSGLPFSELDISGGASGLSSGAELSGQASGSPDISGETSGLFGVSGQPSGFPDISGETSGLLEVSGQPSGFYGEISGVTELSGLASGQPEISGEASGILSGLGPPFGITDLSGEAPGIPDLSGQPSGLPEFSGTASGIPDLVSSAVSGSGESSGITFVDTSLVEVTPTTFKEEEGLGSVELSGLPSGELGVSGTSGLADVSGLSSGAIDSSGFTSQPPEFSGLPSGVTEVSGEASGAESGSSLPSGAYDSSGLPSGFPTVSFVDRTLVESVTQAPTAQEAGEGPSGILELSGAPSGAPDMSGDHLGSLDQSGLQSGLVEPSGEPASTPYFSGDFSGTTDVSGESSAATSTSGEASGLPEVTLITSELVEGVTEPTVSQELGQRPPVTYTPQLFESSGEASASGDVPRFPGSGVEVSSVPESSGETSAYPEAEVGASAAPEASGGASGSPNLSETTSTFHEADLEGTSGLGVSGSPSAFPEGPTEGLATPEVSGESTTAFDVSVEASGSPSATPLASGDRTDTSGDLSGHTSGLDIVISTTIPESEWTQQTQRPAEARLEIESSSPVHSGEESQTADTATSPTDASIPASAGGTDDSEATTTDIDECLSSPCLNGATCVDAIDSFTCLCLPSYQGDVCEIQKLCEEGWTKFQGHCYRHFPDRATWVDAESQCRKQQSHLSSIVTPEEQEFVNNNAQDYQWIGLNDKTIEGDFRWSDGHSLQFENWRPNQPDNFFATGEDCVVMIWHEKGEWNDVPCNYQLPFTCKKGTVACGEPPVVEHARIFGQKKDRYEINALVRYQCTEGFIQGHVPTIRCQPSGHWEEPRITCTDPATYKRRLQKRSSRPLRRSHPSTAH

recombinant aggrecanase 1 protein (ADAMTS-4)
aggrecanase activity (digestion of bovine aggrecan, neoepitope Western blot with C1 MAb): Positive control is recombinant aggrecanase 1 protein (ADAMTS-4)
